In patent US20220025010A1 (ANTAG THERAPEUTICS, published 2022):
Read-outs that look alike come from different tables or passages of the source. *1 amine or outer side, *2 acyl side, *3 side chain or, on linkers, in order; H or OH if unused. Where no end group is shown, it is not given here. Side-chain parts run from the residue outwards. The star is where a group is joined. C18 diacid = O=C(O)CCCCCCCCCCCCCCCCC(=O)*; C16 diacid = O=C(O)CCCCCCCCCCCCCCC(=O)*; γGlu = O=C(O)[C@H](CCC(=O)[*:2])N[*:1]; AEEA = NCCOCCOCC(=O)O

T1: human GIP receptor (human, UniProt P48546 22-466)
T1 sequence (looked up): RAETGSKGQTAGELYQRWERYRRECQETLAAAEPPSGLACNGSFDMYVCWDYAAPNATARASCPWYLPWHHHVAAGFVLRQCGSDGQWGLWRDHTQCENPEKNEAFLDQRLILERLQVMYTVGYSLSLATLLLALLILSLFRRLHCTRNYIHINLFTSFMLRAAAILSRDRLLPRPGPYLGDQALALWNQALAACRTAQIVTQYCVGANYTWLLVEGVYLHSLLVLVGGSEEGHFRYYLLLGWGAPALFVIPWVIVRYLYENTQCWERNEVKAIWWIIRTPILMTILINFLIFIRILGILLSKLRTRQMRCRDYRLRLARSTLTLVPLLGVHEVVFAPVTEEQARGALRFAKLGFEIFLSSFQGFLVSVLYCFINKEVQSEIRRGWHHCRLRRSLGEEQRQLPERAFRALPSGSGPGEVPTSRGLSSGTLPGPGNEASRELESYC


How the values were obtained:
Test in all cases: cell-based or functional assay
human GIP receptor [1] = biological target: T1, human GIP receptor
human GIP receptor [2] = biological target: T1, human GIP receptor; remark: listed apart in the source
human GIP receptor [3] = biological target: T1, human GIP receptor; remark: listed apart in the source

| Binder | CisBio cAMP agonism % Efficacy (human GIP receptor [1]) [%] | CisBio cAMP antagonism % inhib (human GIP receptor [1]) [%] | CisBio cAMP antagonism IC50 (human GIP receptor [1]) [µM] | CisBio cAMP antagonism pIC50 (human GIP receptor [1]) | DiscoveRx cAMP antagonism % inhib (human GIP receptor [1]) [%] | DiscoveRx cAMP antagonism IC50 (human GIP receptor [1]) [µM] | DiscoveRx cAMP antagonism log IC50 (human GIP receptor [1]) [log M] | CisBio cAMP antagonism % inhib (human GIP receptor [2]) [%] | CisBio cAMP antagonism IC50 (human GIP receptor [2]) [µM] | cAMP antagonism % inhib (human GIP receptor [2]) [%] | cAMP antagonism IC50 (human GIP receptor [2]) [µM] | cAMP antagonism % inhib (human GIP receptor [3]) [%] | cAMP antagonism IC50 (human GIP receptor [3]) [µM] | cAMP antagonism log IC50 (human GIP receptor [3]) [log M] |
| --- | --- | --- | --- | --- | --- | --- | --- | --- | --- | --- | --- | --- | --- | --- |
| SGTFISDYSIAMDRIK([AEEA-AEEA-AEEA-γGlu-C18 diacid])QQDFVNWLLAQR-NH2 (N-terminus assumed; SMILES CC[C@H](C)[C@H](NC(=O)[C@H](CO)NC(=O)[C@H](Cc1ccc(O)cc1)NC(=O)[C@H](CC(=O)O)NC(=O)[C@H](CO)NC(=O)[C@@H](NC(=O)[C@H](Cc1ccccc1)NC(=O)[C@@H](NC(=O)CNC(=O)[C@@H](N)CO)[C@@H](C)O)[C@@H](C)CC)C(=O)N[C@@H](C)C(=O)N[C@@H](CCSC)C(=O)N[C@@H](CC(=O)O)C(=O)N[C@@H](CCCNC(=N)N)C(=O)N[C@H](C(=O)N[C@@H](CCCCNC(=O)COCCOCCNC(=O)COCCOCCNC(=O)COCCOCCNC(=O)CC[C@H](NC(=O)CCCCCCCCCCCCCCCCC(=O)O)C(=O)O)C(=O)N[C@@H](CCC(N)=O)C(=O)N[C@@H](CCC(N)=O)C(=O)N[C@@H](CC(=O)O)C(=O)N[C@@H](Cc1ccccc1)C(=O)N[C@H](C(=O)N[C@@H](CC(N)=O)C(=O)N[C@@H](Cc1c[nH]c2ccccc12)C(=O)N[C@@H](CC(C)C)C(=O)N[C@@H](CC(C)C)C(=O)N[C@@H](C)C(=O)N[C@@H](CCC(N)=O)C(=O)N[C@@H](CCCNC(=N)N)C(N)=O)C(C)C)[C@@H](C)CC) [AT385] | 3 | 70 | 0.043 | 7.4 | 100 | 0.004 | -8.4 | 70 | 0.043 | 100 | 0.004 |  |  |  |
| SGTFISDYSIAMDRIK([AEEA-AEEA-γGlu-C18 diacid])QQDFVNWLLAQR-NH2 (N-terminus assumed; SMILES CC[C@H](C)[C@H](NC(=O)[C@H](CO)NC(=O)[C@H](Cc1ccc(O)cc1)NC(=O)[C@H](CC(=O)O)NC(=O)[C@H](CO)NC(=O)[C@@H](NC(=O)[C@H](Cc1ccccc1)NC(=O)[C@@H](NC(=O)CNC(=O)[C@@H](N)CO)[C@@H](C)O)[C@@H](C)CC)C(=O)N[C@@H](C)C(=O)N[C@@H](CCSC)C(=O)N[C@@H](CC(=O)O)C(=O)N[C@@H](CCCNC(=N)N)C(=O)N[C@H](C(=O)N[C@@H](CCCCNC(=O)COCCOCCNC(=O)COCCOCCNC(=O)CC[C@H](NC(=O)CCCCCCCCCCCCCCCCC(=O)O)C(=O)O)C(=O)N[C@@H](CCC(N)=O)C(=O)N[C@@H](CCC(N)=O)C(=O)N[C@@H](CC(=O)O)C(=O)N[C@@H](Cc1ccccc1)C(=O)N[C@H](C(=O)N[C@@H](CC(N)=O)C(=O)N[C@@H](Cc1c[nH]c2ccccc12)C(=O)N[C@@H](CC(C)C)C(=O)N[C@@H](CC(C)C)C(=O)N[C@@H](C)C(=O)N[C@@H](CCC(N)=O)C(=O)N[C@@H](CCCNC(=N)N)C(N)=O)C(C)C)[C@@H](C)CC) [AT384] | 0 | 97 | 0.0541 | 7.3 | 100 | 0.008 | -8.1 | 97 | 0.0541 | 100 | 0.008 |  |  |  |
| SGTFISDYSIAMDRIK(C18 diacid)QQDFVNWLLAQR-NH2 (N-terminus assumed; SMILES CC[C@H](C)[C@H](NC(=O)[C@H](CO)NC(=O)[C@H](Cc1ccc(O)cc1)NC(=O)[C@H](CC(=O)O)NC(=O)[C@H](CO)NC(=O)[C@@H](NC(=O)[C@H](Cc1ccccc1)NC(=O)[C@@H](NC(=O)CNC(=O)[C@@H](N)CO)[C@@H](C)O)[C@@H](C)CC)C(=O)N[C@@H](C)C(=O)N[C@@H](CCSC)C(=O)N[C@@H](CC(=O)O)C(=O)N[C@@H](CCCNC(=N)N)C(=O)N[C@H](C(=O)N[C@@H](CCCCNC(=O)CCCCCCCCCCCCCCCCC(=O)O)C(=O)N[C@@H](CCC(N)=O)C(=O)N[C@@H](CCC(N)=O)C(=O)N[C@@H](CC(=O)O)C(=O)N[C@@H](Cc1ccccc1)C(=O)N[C@H](C(=O)N[C@@H](CC(N)=O)C(=O)N[C@@H](Cc1c[nH]c2ccccc12)C(=O)N[C@@H](CC(C)C)C(=O)N[C@@H](CC(C)C)C(=O)N[C@@H](C)C(=O)N[C@@H](CCC(N)=O)C(=O)N[C@@H](CCCNC(=N)N)C(N)=O)C(C)C)[C@@H](C)CC) [AT393] | 6 | 78 | 0.0335 | 7.5 | 100 | 0.001 | -8.9 | 78 | 0.0335 | 100 | 0.001 |  |  |  |
| ISDYSIAMDKIK(C16 diacid)QQDFVNWLLAQK-NH2 (N-terminus assumed; SMILES CC[C@H](C)[C@H](N)C(=O)N[C@@H](CO)C(=O)N[C@@H](CC(=O)O)C(=O)N[C@@H](Cc1ccc(O)cc1)C(=O)N[C@@H](CO)C(=O)N[C@H](C(=O)N[C@@H](C)C(=O)N[C@@H](CCSC)C(=O)N[C@@H](CC(=O)O)C(=O)N[C@@H](CCCCN)C(=O)N[C@H](C(=O)N[C@@H](CCCCNC(=O)CCCCCCCCCCCCCCC(=O)O)C(=O)N[C@@H](CCC(N)=O)C(=O)N[C@@H](CCC(N)=O)C(=O)N[C@@H](CC(=O)O)C(=O)N[C@@H](Cc1ccccc1)C(=O)N[C@H](C(=O)N[C@@H](CC(N)=O)C(=O)N[C@@H](Cc1c[nH]c2ccccc12)C(=O)N[C@@H](CC(C)C)C(=O)N[C@@H](CC(C)C)C(=O)N[C@@H](C)C(=O)N[C@@H](CCC(N)=O)C(=O)N[C@@H](CCCCN)C(N)=O)C(C)C)[C@@H](C)CC)[C@@H](C)CC) [AT354] | 0 | 91 | 0.108 | 7 |  |  |  |  |  |  |  | 100 | 0.01 | -8 |
| SGTFISDYSIAMDRIK([AEEA-AEEA-AEEA-γGlu-C16 diacid])QQDFVNWLLAQR-NH2 (N-terminus assumed; SMILES CC[C@H](C)[C@H](NC(=O)[C@H](CO)NC(=O)[C@H](Cc1ccc(O)cc1)NC(=O)[C@H](CC(=O)O)NC(=O)[C@H](CO)NC(=O)[C@@H](NC(=O)[C@H](Cc1ccccc1)NC(=O)[C@@H](NC(=O)CNC(=O)[C@@H](N)CO)[C@@H](C)O)[C@@H](C)CC)C(=O)N[C@@H](C)C(=O)N[C@@H](CCSC)C(=O)N[C@@H](CC(=O)O)C(=O)N[C@@H](CCCNC(=N)N)C(=O)N[C@H](C(=O)N[C@@H](CCCCNC(=O)COCCOCCNC(=O)COCCOCCNC(=O)COCCOCCNC(=O)CC[C@H](NC(=O)CCCCCCCCCCCCCCC(=O)O)C(=O)O)C(=O)N[C@@H](CCC(N)=O)C(=O)N[C@@H](CCC(N)=O)C(=O)N[C@@H](CC(=O)O)C(=O)N[C@@H](Cc1ccccc1)C(=O)N[C@H](C(=O)N[C@@H](CC(N)=O)C(=O)N[C@@H](Cc1c[nH]c2ccccc12)C(=O)N[C@@H](CC(C)C)C(=O)N[C@@H](CC(C)C)C(=O)N[C@@H](C)C(=O)N[C@@H](CCC(N)=O)C(=O)N[C@@H](CCCNC(=N)N)C(N)=O)C(C)C)[C@@H](C)CC) [AT383] | 0 | 89 | 0.0126 | 7.9 | 100 | 0.001 | -8.9 | 89 | 0.0126 | 100 | 0.001 |  |  |  |
| SDYSIAMDKIK(C16 diacid)QQDFVNWLLAQK-NH2 (N-terminus assumed; SMILES CC[C@H](C)[C@H](NC(=O)[C@H](CO)NC(=O)[C@H](Cc1ccc(O)cc1)NC(=O)[C@H](CC(=O)O)NC(=O)[C@@H](N)CO)C(=O)N[C@@H](C)C(=O)N[C@@H](CCSC)C(=O)N[C@@H](CC(=O)O)C(=O)N[C@@H](CCCCN)C(=O)N[C@H](C(=O)N[C@@H](CCCCNC(=O)CCCCCCCCCCCCCCC(=O)O)C(=O)N[C@@H](CCC(N)=O)C(=O)N[C@@H](CCC(N)=O)C(=O)N[C@@H](CC(=O)O)C(=O)N[C@@H](Cc1ccccc1)C(=O)N[C@H](C(=O)N[C@@H](CC(N)=O)C(=O)N[C@@H](Cc1c[nH]c2ccccc12)C(=O)N[C@@H](CC(C)C)C(=O)N[C@@H](CC(C)C)C(=O)N[C@@H](C)C(=O)N[C@@H](CCC(N)=O)C(=O)N[C@@H](CCCCN)C(N)=O)C(C)C)[C@@H](C)CC) [AT355] | 0 | 65 | 0.233 | 6.6 |  |  |  |  |  |  |  | 100 | 0.053 | -7.3 |
